Data taken from publication PMC5929992 (Science signaling, 2016).
Non-standard residues stand in square brackets, D forms with d. No end group written: not given here. pY = N[C@@H](Cc1ccc(OP(=O)(O)O)cc1)C(=O)O

Legend:
Experiment in all cases: SPR
[1] = target: Biotinylated CD28CD 25-mer peptide (residues 194 to 218) phosphorylated at Tyr207 (mouse)
[2] = target: Lck SH2 domain (residues 122 to 226) (mouse, UniProt P06240 122-226)
[3] = target: Murine full-length Lck (amino acid residues 6 to 509) (mouse, UniProt P06240 6-509, phosphotyrosine at 505)
Chain of Murine full-length Lck (amino acid residues 6 to 509) (P06240 6-509): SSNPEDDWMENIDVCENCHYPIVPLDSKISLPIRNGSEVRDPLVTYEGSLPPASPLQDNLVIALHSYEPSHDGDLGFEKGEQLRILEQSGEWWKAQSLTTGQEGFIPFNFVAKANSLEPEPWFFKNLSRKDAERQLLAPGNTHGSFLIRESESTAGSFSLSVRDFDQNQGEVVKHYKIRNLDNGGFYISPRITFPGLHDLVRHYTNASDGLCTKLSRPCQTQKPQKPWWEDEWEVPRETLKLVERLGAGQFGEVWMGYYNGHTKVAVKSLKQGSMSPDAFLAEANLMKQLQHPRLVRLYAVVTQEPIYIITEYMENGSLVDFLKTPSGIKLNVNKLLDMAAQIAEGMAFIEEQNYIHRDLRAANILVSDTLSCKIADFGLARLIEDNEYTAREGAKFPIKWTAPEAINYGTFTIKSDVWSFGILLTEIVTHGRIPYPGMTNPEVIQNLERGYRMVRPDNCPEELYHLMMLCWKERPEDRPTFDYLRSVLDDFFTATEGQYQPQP

Chain of Lck SH2 domain (residues 122 to 226) (P06240 122-226): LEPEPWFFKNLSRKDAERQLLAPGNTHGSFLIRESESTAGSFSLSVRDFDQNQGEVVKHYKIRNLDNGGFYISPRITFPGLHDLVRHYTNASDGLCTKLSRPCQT

Molecule | Kd [3] | other results
Lck SH2 domain (residues 122 to 226) (from UniProt P06240 122-226) (domain or fragment) |  | Kd [1]: 10 µM
PRRPGLTRKPYQA[pY]AAARDFAAYRP (peptide, UniProt P31041 194-218, looked up, also: biotinylated, position not given here) [Biotinylated CD28CD 25-mer peptide phosphorylated at Tyr207, double mutant P206A/P209A] |  | Kd [2]: 63.7 µM
CNSRRNRLLQSDYMNMTPRRPGLTRKPYQPYAPARDFAAYRP (domain or fragment, mouse, disulfide between the added N-terminal cysteines of the two chains (oxidized with 1 mM GSSG)) [CD28WT cytoplasmic domain (CD28CD), disulfide-linked dimer] | 0.199 µM | 
CNSRRNRLLQSDYMNMTPRRPGLTRKPYQAYAAARDFAAYRP (domain or fragment, mouse, disulfide between the added N-terminal cysteines of the two chains (oxidized with 1 mM GSSG)) [CD28 Mut5 cytoplasmic domain, disulfide-linked dimer] | 0.187 µM | 
